In patent publication US10221404B2, “Method for modifying characteristics of a lipase” (Novozymes A/S, priority 2014, dated 2019):

What was measured:
[1] = AMSA wash performance, specificity of inhibitory effect of propeptide; conditions: for With inhibitor RP (wash): propeptide SEQ ID No: 4 in 320:1 molar ratio, 3 hours at 4° C., normalized to wash performance without inhibitor; for No inhibitor RP (wash): without propeptide SEQ ID No: 4, normalized per lipase
Procedure: (§1) Washing experiments were performed using Automatic Mechanical Stress Assay (AMSA) in order to assess the wash performance in laundry. The AMSA plate has a number of slots for test solutions and a lid firmly squeezing the laundry sample, the textile to be washed against all the slot openings. During the washing time, the plate, test solutions, textile and lid were vigorously shaken to bring the test solution in contact with the textile and apply mechanical stress in a regular, periodic oscillating manner. For further description see WO02/42740 especially the paragraph “Special method embodiments” at page 23-24.
(§2) The laundry experiments were conducted in Model Detergent B, pH8. The experimental conditions are specified below:
(§3) Final adjustments to the specified pH were done with NaOH or citric acid. Water hardness was adjusted to 15° dH by addition of CaCl2 and MgCl2 (Ca^2+:Mg^2+=4:1) to the test system.
(§4) After washing the textiles were flushed in tap water and excess water was removed from the textiles using filter paper and immediately thereafter the textiles were dried at 85° C. for 5 min.
(§5) The wash performance was measured as the color change of the washed soiled textile. The soil was cream mixed with turmeric. Turmeric contains the colorant curcumin, which function as a pH indicator by having pH dependent color change. Lipase activity leads to release of free fatty acids from the cream acylglycerides and this leads to pH decrease and thereby color change of the curcumin pH indicator. Lipase wash performance can therefore be expressed as the extent of color change of light reflected-emitted from the washed soiled textile when illuminated with white light.
(§6) Color measurements were made with a professional flatbed scanner (EPSON EXPRESSION 10000XL, Atea NS, Lautrupvang 6, 2750 Ballerup, Denmark), which was used to capture an image of the washed soiled textile. To extract a value for the light intensity from the scanned images, 24-bit pixel values from the image were converted into values for red, green and blue (RGB).
(§7) Color change due to lipase activity was measured as the increase in the reflection-emitting of green light (G) relative to the sum of reflected-emitted blue (B) and red (R) light. The wash performance (RP(Wash)) of a lipase relative to a reference lipase (Lipolase™) was calculated as: RP(Wash)=(G/(B+R)(tested lipase)−G/(B+R)(no enzyme))/(G/(B+R)(lipase ref.)−G/(B+R)(no enzyme)).
The inhibitory specificity of the isolated propeptide was determined by mixing the isolated propeptide in a 320:1 molar ratio with 5 different lipases including the active RmL. All enzymes were diluted in 10 mM succinic acid buffer, pH6.5, to a concentration of 1.5 uM and were mixed (1:1) with purified propeptide dilutions. After 3 hours incubation at 4° C. the lipase performance of the incubated lipase-inhibitor samples were determined by Automatic Mechanical Stress Assay (AMSA) as described above. The relative wash performance “RP(wash)” is for each lipase normalized to the wash performance without inhibitor.

[2] = Hydrolytic activity, kinetic assay with p-nitrophenyl acyl esters; format: biochemical; conditions: substrates C3, C6, C10, C12, C16 at 1 mM; 50 mM Tris pH 7.7, 0.4% TritonX-100; 405 nm for 5 minutes
Procedure: The hydrolytic activity of RmL with and without propeptide on various fatty acids was investigated in a kinetic assay using p-nitrophenyl acyl esters as substrate. The 100 mM stock solutions in DMSO of the substrates: p-Nitrophenyl butyrate (C3), p-Nitrophenyl caproate (C6), p-Nitrophenyl caprate (C10), p-Nitrophenyl laurate (C12) and p-Nitrophenyl palmitate (C16) (all from Sigma-Aldrich Danmark NS, Kirkebjerg Allé 84, 2605 Brondby; Cat. no.: C3:N-9876, C6: N-0502, C10: N-0252, C12: N-2002, C16: N-2752) were diluted to a final concentration of 1 mM into assay buffer (50 mM Tris; pH 7.7; 0.4% TritonX-100).
RmL with and without propeptide and appropriate controls: Buffer (negative), Lipex™ (positive) RmL with and without propeptide in 50 mM Hepes pH8.0; 10 ppm TritonX-100; 20 mM CaCl2 were added to the substrate solution in the following final concentrations: 0.01 mg/mL; 5×10^−3 mg/mL; […]; and 1.25×10^−4 mg/mL in 96-well NUNC plates (Cat. No: 260836, Kamstrupvej 90, DK-4000, Roskilde). Release of p-nitrophenol by hydrolysis of p-nitrophenyl acyl was monitored at 405 nm for 5 minutes in 10 second intervals on a Spectra max 190 (Molecular Devices GmbH, Bismarckring 39, 88400 Biberach an der Riss, GERMANY).

[3] = AMSA wash performance after activation with detergent and/or protease; set-up: key to No (RP) / Det (RP) / Sav (RP) / Det + Sav (RP): wash performance relative to reference lipase (Lipolase), RP ratio
Procedure: as §1, §2, §3, §4, §5, §6, §7
Wild type RmL without or with propeptide respectively were submitted to no, detergent, protease or detergent+protease treatment prior to performance test in AMSA to test the activation level of the lipase after the treatment. […] […] Wash performance of all samples were determined by Automatic Mechanical Stress Assay (AMSA) as described above.

B1: isolated propeptide: propeptide of RmL, amino acid sequence SEQ ID No: 4, purified from RmL (protein, listed as Rhizomucor miehei)
chain: VPIKRQSNSTVDSLPPLIPSRTSAPSSSPSTTDPEAPAMSRNGPLPSDVETKYGMALNATSYPDSVVQAM
- inhibitory specificity of the isolated propeptide ([1]; 320:1 molar ratio with different lipases): exclusively effect with RmL

B2: SEQ ID NO: 6 (MuciLip2CN): lipase of SEQ ID NO: 6, tested for propeptide specificity (protein)
chain: MVSFVSISQGISLFIVVSSMLTGSAHAAPASSHSNSSKNATTSDASTFTLPPIISSRVTPPKVPSGSHNVEDANVAKNKKWFEAHGGKLNVTKRADETVGGYTMDLPSNAPPLPAVPSTSTVVIASTAQISEFKKYAGIASTAYCRSVVPLNQWSCTNCLKFVPDGKLIKTFTSLVTDTNGFVLRSDAQKTIYVVFRGTNSIRSAITDLVFELTNYTPVSGAKVHTGFYASYKAVVSDYFPAVQSQLTAYPGYKVIVTGHSLGGAQALLAGMDLYQREPRLSKSNLAIYTVGCPRVGNPAFAYYVDSTGITFSRSVNNRDIVPHVPPQAWGFLHPGVEAWARSSSNVQICTPNIETGLCSNSIVPFTSFTDHLTYYDLNEGLCL
modifications: Mucor circinelloides
- With inhibitor RP (wash) [1]: 1.10
- No inhibitor RP (wash) [1]: 1.00

B3: SEQ ID NO: 5 (Lipex): commercial lipase product Lipex (Novozymes A/S), SEQ ID NO: 5 (protein, listed as Thermomyces lanuginosus)
chain: EVSQDLFNQFNLFAQYSAAAYCGKNNDAPAGTNITCTGNACPEVEKADATFLYSFEDSGVGDVTGFLALDNTNKLIVLSFRGSRSIENWIGNLNFDLKEINDICSGCRGHDGFTSSWRSVADTLRQKVEDAVREHPDYRVVFTGHSLGGALATVAGADLRGNGYDIDVFSYGAPRVGNRAFAEFLTVQTGGTLYRITHTNDIVPRLPPREFGYSHSSPEYWIKSGTLVPVRRRDIVKIEGIDATGGNNQPNIPDIPAHLWYFGLIGTCL
- With inhibitor RP (wash) [1]: 0.89
- No inhibitor RP (wash) [1]: 1.00

B4: SEQ ID NO: 7 (RhimiLip1): lipase of SEQ ID NO: 7, tested for propeptide specificity (protein)
chain: MVSFISISQGVSLCLLVSSMMLGSSAVPVAGHKGSVKATNGTDFQLPPLISSRCTPPSHPETTGDPDAEAYYINKSVQWYQAHGGNYTALIKRDTETVGGMTLDLPENPPPIPATSTAPSSDSGEVVTATAAQIKELTNYAGVAATAYCRSVVPGTKWDCKQCLKYVPDGKLIKTFTSLLTDTNGFILRSDAQKTIYVTFRGTNSFRSAITDMVFTFTDYSPVKGAKVHAGFLSSYNQVVKDYFPVVQDQLTAYPDYKVIVTGHSLGGAQALLAGMDLYQREKRLSPKNLSIYTVGCPRVGNNAFAYYVDSTGIPFHRTVHKRDIVPHVPPQAFGYLHPGVESWIKEDPADVQICTSNIETKQCSNSIVPFTSIADHLTYFGINEGSCL
modifications: Rhizopus microsporus var. chinensis
- With inhibitor RP (wash) [1]: 0.92
- No inhibitor RP (wash) [1]: 1.00

B5: RmL with propeptide: Rhizomucor miehei lipase with its native N-terminal propeptide non-covalently bound (inactive RmL) (protein, UniProt P19515 25-363, looked up)
pro-form: VPIKRQSNSTVDSLPPLIPSRTSAPSSSPSTTDPEAPAMSRNGPLPSDVETKYGMALNATSYPDSVVQAMSIDGGIRAATSQEINELTYYTTLSANSYCRTVIPGATWDCIHCDATEDLKIIKTWSTLIYDTNAMVARGDSEKTIYIVFRGSSSIRNWIADLTFVPVSYPPVSGTKVHKGFLDSYGEVQNELVATVLDQFKQYPSYKVAVTGHSLGGATALLCALDLYQREEGLSSSNLFLYTQGQPRVGDPAFANYVVSTGIPYRRTVNERDIVPHLPPAAFGFLHAGEEYWITDNSPETVQVCTSDLETSDCSNSIVPFTSVLDHLSYFGINTGLCT
modifications: pro-form
- hydrolytic activity on p-nitrophenyl acyl esters [2]: no activity
- Sav (RP) ([3]; 10 minutes in 1.35% (v/v) Savinase in 10 mM succinic acid pH6.5): 0.27
- Det + Sav (RP) ([3]; 10 minutes in 1.35% (v/v) Savinase in 77% (w/w) Detergent B): 0.88
- Det (RP) ([3]; 10 minutes in 77% (w/w) Model detergent B): 0.60
- No (RP) ([3]; 60 minutes in 10 mM succinic acid pH6.5): 0.18
- Sav (RP) ([3]; 60 minutes in 1.35% (v/v) Savinase in 10 mM succinic acid pH6.5): 0.39
- Det + Sav (RP) ([3]; 60 minutes in 1.35% (v/v) Savinase in 77% (w/w) Detergent B): 0.85
- Det (RP) ([3]; 60 minutes in 77% (w/w) Model detergent B): 0.69
- activation level of the lipase ([3]; Savinase treatment in detergent, after 10 minutes): full activation
